Ends that are not written are not given here.

Sequences and labels used below:
B2: GST-MKK7 (GST-JNKK2; human JNKK2 in pGEX-2T) (enzyme)
chain: MAASSLEQKLSRLEAKLKQENREARRRIDLNLDISPQRPRPTLQLPLANDGGSRSPSSESSPQHPTPPARPRHMLGLPSTLFTPRSMESIEIDHKLQEIMKQTGYLTIGGQRYQAEINDLENLGEMGSGTCGPVWKMRFRKTGHVIAVKQMRRSGNKEENKRILMDLDVVLKSHDCPYIVQCFGTFITNTDVFIAMELMGTCAEKLKKRMQGPIPERILGKMTVAIVKALYYLKEKHGVIHRDVKPSNILLDERGQIKLCDFGISGRLVDSKAKTRSAGCAAYMAPERIDPPDPTKPDYDIRADVWSLGISLVELATGQFPYKNCKTDFEVLTKVLQEEPPLLPGHMGFSGDFQSFVKDCLTKDHRKRPKYNKLLEHSFIKRYETLEVDVASWFKDVMAKT
notes: On glutathione beads in pull-downs; also called recombinant JNKK2; not shown: glutathione S-transferase encoded by the pGEX-2T vector

Experiment [1] addresses T1, GST (glutathione-S-transferase, control) (UniProt P08515 1-218 = GST).
T1 construct: Control beads in GST pull-downs
The experiment in a line: GST pull-down of 35S-labeled in vitro translated protein.
Description: Binding assays were performed according to standard procedures, and ³⁵S-labeled proteins that bound to beads, as well as 2 μl of each in vitro translation mix (input), were then resolved by SDS polyacrylamide gel electrophoresis.

Experiment [2] deals with T2, Gadd45β (1-68) (EcoRV digestion), in vitro translated as GFP fusion (murine, UniProt P22339 1-68, 35S-methionine label).
T2 construct: range 1-68; not shown: GFP of pEGFP-N1 (Clontech) with a short oligonucleotide-encoded linker
T2 sequence (looked up): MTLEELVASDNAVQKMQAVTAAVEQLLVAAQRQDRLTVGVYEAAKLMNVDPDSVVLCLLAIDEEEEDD
Description: GST pull-down with GST-JNKK2 beads and 35S-labeled in vitro translated Gadd45β truncations.

The target in experiment [3] is T3, endogenous MEKK1 of 3DO cells (UniProt P53349 2-1493, limits assumed).
T3 sequence (looked up): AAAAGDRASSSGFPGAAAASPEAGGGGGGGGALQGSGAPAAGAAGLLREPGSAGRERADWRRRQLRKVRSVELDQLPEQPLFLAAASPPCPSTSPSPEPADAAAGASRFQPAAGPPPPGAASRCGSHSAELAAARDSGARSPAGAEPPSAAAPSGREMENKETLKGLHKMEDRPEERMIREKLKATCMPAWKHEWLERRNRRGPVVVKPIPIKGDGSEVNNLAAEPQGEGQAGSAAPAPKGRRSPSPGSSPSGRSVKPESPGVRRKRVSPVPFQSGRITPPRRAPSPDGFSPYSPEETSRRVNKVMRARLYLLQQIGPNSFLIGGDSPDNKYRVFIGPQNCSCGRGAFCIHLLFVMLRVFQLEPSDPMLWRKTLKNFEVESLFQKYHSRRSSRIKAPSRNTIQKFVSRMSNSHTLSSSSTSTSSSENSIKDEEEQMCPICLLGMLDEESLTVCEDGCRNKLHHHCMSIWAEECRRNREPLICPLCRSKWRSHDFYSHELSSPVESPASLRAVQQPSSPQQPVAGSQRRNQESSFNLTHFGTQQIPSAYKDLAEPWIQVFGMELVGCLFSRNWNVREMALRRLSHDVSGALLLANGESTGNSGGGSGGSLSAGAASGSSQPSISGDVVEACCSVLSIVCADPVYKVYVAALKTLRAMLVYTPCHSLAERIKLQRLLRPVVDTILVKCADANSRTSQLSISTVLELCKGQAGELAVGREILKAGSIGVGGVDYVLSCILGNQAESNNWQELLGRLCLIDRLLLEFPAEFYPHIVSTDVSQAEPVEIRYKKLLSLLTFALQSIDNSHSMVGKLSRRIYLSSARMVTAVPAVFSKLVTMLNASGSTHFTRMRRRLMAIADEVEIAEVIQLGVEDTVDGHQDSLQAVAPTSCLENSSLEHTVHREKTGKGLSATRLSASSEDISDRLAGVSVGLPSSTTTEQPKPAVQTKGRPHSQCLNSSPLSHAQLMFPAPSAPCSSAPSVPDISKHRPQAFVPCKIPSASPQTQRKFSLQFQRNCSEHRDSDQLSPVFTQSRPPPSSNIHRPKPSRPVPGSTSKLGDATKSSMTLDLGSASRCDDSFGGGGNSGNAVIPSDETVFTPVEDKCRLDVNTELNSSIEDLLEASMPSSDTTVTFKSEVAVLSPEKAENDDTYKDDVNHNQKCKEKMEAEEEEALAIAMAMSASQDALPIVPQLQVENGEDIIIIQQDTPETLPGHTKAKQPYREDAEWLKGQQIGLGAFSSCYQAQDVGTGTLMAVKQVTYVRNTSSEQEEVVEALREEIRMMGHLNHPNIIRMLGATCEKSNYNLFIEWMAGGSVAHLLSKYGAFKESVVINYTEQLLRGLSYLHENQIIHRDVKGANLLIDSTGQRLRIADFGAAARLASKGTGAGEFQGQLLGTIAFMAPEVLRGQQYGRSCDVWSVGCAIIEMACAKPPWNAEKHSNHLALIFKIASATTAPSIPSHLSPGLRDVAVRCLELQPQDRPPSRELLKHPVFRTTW
The experiment in a line: co-immunoprecipitation of endogenous proteins from 3DO cells.

The target in experiment [4] is T4, GST-Gadd45β (full-length murine Gadd45β directly fused to GST) (murine, UniProt P22339 1-160).
T4 construct: range 1-160; Made in E. coli BL21, on glutathione-sepharose beads in pull-downs; purified protein in kinase assays; not shown: glutathione S-transferase encoded by the pGEX-3X vector
T4 sequence (looked up): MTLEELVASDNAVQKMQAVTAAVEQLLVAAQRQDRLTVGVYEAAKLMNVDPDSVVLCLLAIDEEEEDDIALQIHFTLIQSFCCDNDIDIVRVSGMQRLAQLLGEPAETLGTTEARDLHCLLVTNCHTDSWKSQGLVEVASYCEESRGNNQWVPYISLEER
The experiment in a line: GST pull-down of 35S-labeled in vitro translated MKK7 peptides.

The target in experiment [5] is B2. The experiment in a line: GST pull-down with GST-JNKK2 beads and 35S-labeled in vitro translated Gadd45β truncations.

T1 sequence (P08515 whole entry): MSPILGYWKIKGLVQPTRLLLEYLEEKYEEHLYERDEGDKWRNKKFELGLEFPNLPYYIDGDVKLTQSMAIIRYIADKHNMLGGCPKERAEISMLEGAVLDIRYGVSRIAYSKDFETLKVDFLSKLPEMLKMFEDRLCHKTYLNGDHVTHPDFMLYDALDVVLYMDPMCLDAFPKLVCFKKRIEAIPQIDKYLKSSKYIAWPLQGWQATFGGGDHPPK

B1: FL-JNKK2, JNKK2 (1-401; FL), 35S-labeled in vitro translated full-length human JNKK2/MKK7 (enzyme)
chain: MAASSLEQKLSRLEAKLKQENREARRRIDLNLDISPQRPRPTLQLPLANDGGSRSPSSESSPQHPTPPARPRHMLGLPSTLFTPRSMESIEIDHKLQEIMKQTGYLTIGGQRYQAEINDLENLGEMGSGTCGPVWKMRFRKTGHVIAVKQMRRSGNKEENKRILMDLDVVLKSHDCPYIVQCFGTFITNTDVFIAMELMGTCAEKLKKRMQGPIPERILGKMTVAIVKALYYLKEKHGVIHRDVKPSNILLDERGQIKLCDFGISGRLVDSKAKTRSAGCAAYMAPERIDPPDPTKPDYDIRADVWSLGISLVELATGQFPYKNCKTDFEVLTKVLQEEPPLLPGHMGFSGDFQSFVKDCLTKDHRKRPKYNKLLEHSFIKRYETLEVDVASWFKDVMAKT
modifications: 35S-methionine label
notes: Reticulocyte lysate translation from pBS-JNKK2; also called full-length MKK7; SacII (FL)
As to B1, in experiment [1], the binding result is given as “no binding”.

In the case of B2, in experiment [2], the binding result is “no binding”.

B3: Gadd45β in cells (untagged full-length: endogenous in 3DO cells and MEFs, or stably expressed in 3DO-IκBαM-Gadd45β clones) (other, UniProt P22339 1-160, looked up)
chain: MTLEELVASDNAVQKMQAVTAAVEQLLVAAQRQDRLTVGVYEAAKLMNVDPDSVVLCLLAIDEEEEDDIALQIHFTLIQSFCCDNDIDIVRVSGMQRLAQLLGEPAETLGTTEARDLHCLLVTNCHTDSWKSQGLVEVASYCEESRGNNQWVPYISLEER
notes: also called endogenous Gadd45β
Turning to B3, the binding result in experiment [3] is “no binding”.

B4: MKK7 peptide 2 (aa 142-166 of MKK7/JNKK2), in vitro translated, fused to eGFP (peptide)
chain: TGHVIAVKQMRRSGNKEENKRILMD
modifications: also: 35S-methionine label, place not given here, eGFP fusion, side not given here
notes: not shown: enhanced green fluorescent protein (eGFP, Clontech) fusion partner
In the case of B4, the binding result in experiment [4] is on record as “no binding”.

B5: Gadd45β (114-160), in vitro translated as GFP fusion (other, murine, UniProt P22339 114-160, looked up)
chain: ARDLHCLLVTNCHTDSWKSQGLVEVASYCEESRGNNQWVPYISLEER
modifications: cysteine pairing not given here; also: GFP fusion, letters not given here, 35S-methionine label
notes: The two places differ by one residue at the N-terminal limit; also called Gadd45β(113-160) in the methods; not shown: GFP of pEGFP-N1 (Clontech) with a short oligonucleotide-encoded linker
In the case of B5, the binding result in experiment [5] is recorded as “no binding”.

The values above are taken from patent US20050265970A1 (UNIVERSITY OF CHICAGO, published 2005).
